The text below walks through data of publication PMC11228049.

pKd: −log10 of the molar value.

In assay [1] the target is untagged βarr2 (UniProt P29067). Briefly: ITC; βarr form in the sample cell, WT Gβγ in the syringe; 25 °C; 20 mM HEPES, 150 mM NaCl, 0.02% DDM, pH 7.4; one-site model. A general note: ITC needs no label: the signal is the heat of the interaction.
Assay [2] concerns the target βarr2 in excess V2Rpp (UniProt P29067). Described as above.
For assay [3], the target named is untagged βarr2 (UniProt P29067). The assay is described as follows: ITC; βarr1 (15 μM) or βarr2 (20 μM) in the sample cell, 400 μM Gβγ C68S in the syringe; 25 °C; 20 mM HEPES, 150 mM NaCl, 0.02% DDM, pH 7.4; an additional early binding site was excluded, the rest fitted to a one-site model.

Chain of UniProt P29067 (P29067 whole entry): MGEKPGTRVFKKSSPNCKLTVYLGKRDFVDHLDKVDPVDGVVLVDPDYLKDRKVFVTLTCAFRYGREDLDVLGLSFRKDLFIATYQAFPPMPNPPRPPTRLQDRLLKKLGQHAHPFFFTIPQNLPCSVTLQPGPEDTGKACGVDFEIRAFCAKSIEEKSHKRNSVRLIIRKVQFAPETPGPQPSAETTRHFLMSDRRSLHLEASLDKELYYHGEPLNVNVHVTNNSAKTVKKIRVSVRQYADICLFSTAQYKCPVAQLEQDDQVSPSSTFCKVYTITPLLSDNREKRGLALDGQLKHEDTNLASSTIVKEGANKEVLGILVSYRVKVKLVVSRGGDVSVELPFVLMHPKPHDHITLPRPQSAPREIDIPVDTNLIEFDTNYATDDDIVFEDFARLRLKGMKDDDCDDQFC

With “recombinant purified WT Gβ1γ2 (from UniProt P62873 1-340; P59768 1-71) (complex)”, in assay [1], the pKd was 5.82 and the stoichiometry N is 1 site. For the same substance, in assay [2], the pKd is 5.74 and the stoichiometry N was 1 site.

“Gβ1γ2 with a C68S mutation in Gγ2 (from UniProt P62873 1-340; P59768 1-71) (complex)” had a pKd in assay [3] of 6.05.

In general, pKd refers to the negative decadic logarithm of the Kd, by convention in mol/L. A higher pKd goes with a small Kd. The stoichiometry N is the number of molecules, sites or subunits per partner or assembly.
